Laboratory results published in patent publication US20210386788A1, “ER TUNABLE PROTEIN REGULATION” (Obsidian Therapeutics, Inc., priority 2018, published 2021).

Legend:
Type in all cases: cell-based, human
[1] = test system: Nalm6 target cells; test: Interferon gamma in T cell/Nalm6 co-culture supernatants (MSD); settings: co-culture supernatant at 42 hours
Experimental: (§1) To measure Interferon gamma production, T cells transduced with the constructs OT-00179, OT-002158, OT-001407 or empty vector were thawed and co-cultured with Nalm6 target cells (stably expressing NucRed®) at different ratios of transduced T cells (herein referred to as the Effector) and Nalm 6 cells (herein referred to as the Target). Target cell viability was determined by measuring cellular fluorescence over time using the Incucyte instrument. Data presented in Table 22 are expressed as Nalm6 cell area at representative time points (0, 24, and 42 hour (hr)). The lower the numerical value of the Nalm6 area, the higher the cytotoxicity effected by the Effector cells.
Cell culture supernatants were collected from the T cell/Nalm6 cytotoxicity assay co-cultures at 42 hours. Interferon gamma was measured by MSD and is described in Table 23.

[2] = test system: primary T cells; test: CD19 CAR expression on lentivirus transduced primary T cells (flow cytometry with CD19-Fc); settings: for CAR expression, % positive: day 7 of T cell expansion
Experimental: (§2) Primary T cells were activated with CD3/CD28 Dynabeads at 3:1 Bead: Cell ratio overnight, then transduced with OT-001792 lentivirus. On day 7 of the T cell expansion, CAR expression was measured by flow cytometry with CD19-Fc on cells treated overnight in the presence (34% positive) or absence (0.6% positive) of 1 μM Bazedoxifene. After the T cells had expanded for 10 days, they were mixed with CD19-expressing Nalm6 target cells at ratios of 10:1 and 2.5:1 total T cells:Nalm6 cells and cultured for 3 days.
Primary T cells were activated with CD3/CD28 Dynabeads at 3:1 Bead:Cell ratio overnight, then transduced with lentiviruses derived from the indicated constructs. On day 7 or day 9 (as indicated) of the T cell expansion, CAR expression was measured by flow cytometry with CD19-Fc on cells incubated for 24 hours with 1 μM Bazedoxifene or 1 μM Raloxifene or DMSO. […] At day 9 the basal percentage of CAR positive cells for the same constructs was even lower at approximately 20% i.e. in the absence of ligand and about 32-45% in the presence of either ligand. […] This was true at both day 7 and day 9.
Human donor T cells were thawed and activated overnight in the presence of CD3/CD28 Dynabeads at 3:1 bead:cell ratio, then transduced with lentivirus related to OT-002158, or OT-001786. Cells were expanded over the course of 10 days, with fresh media added to maintain cells at around 0.5×10^6 cells/mL. On day 9, an aliquot of cells was removed, and treated with 1 μM Bazedoxifene overnight or DMSO vehicle control, then stained with 10 μg/mL CD19-Fc. Histograms showing CAR expression from a Live Singlet cell gate were plotted.
Human donor T cells were thawed and activated overnight in the presence of CD3/CD28 Dynabeads at 3:1 bead:cell ratio, then transduced with lentivirus from the constructs. Cells were expanded over the course of 10 days, and fresh media was added to maintain cells around 0.5×10^6 cells/ml. On day 9, an aliquot of cells were removed, treated with 1 μM Bazedoxifene overnight, then stained with 10 μg/mL CD19-Fc. Histograms showing CAR expression from a Live Singlet cell gate were plotted. The data are shown in Table 19 and Table 20 where data are presented as % CAR positive cells, where SR indicates stabilization ration.
T cells were transduced with OT-00179, OT-002158, OT-001407 or empty vector and expanded as described herein, frozen on day 10. To confirm the expression and function of this large scale expansion for in vivo use, cells were thawed and incubated overnight in the presence of CD3/28 beads (1:1 bead:cell ratio) and with or without 1 μM Bazedoxifene. FACS staining with 1 μg/mL CD19-Fc was performed to measure the surface expression of CD19-CAR. The data are provided in Table 21 as the percentage CAR positive cells.

[3] = test system: Nalm6 target cells; test: Nalm6 target cell killing by CAR T cells (Incucyte)
Experimental: as §2, §1

B1: OT-001792: CD8α leader; Linker (RS); ER (L384M, M421G, G521R, Y537S); Furin cleavage site; CD19 CAR; SEQ ID NO. 406 (protein)
chain: MALPVTALLLPLALLLHAARPRSSLALSLTADQMVSALLDAEPPILYSEYDPTRPFSEASMMGLLTNLADRELVHMINWAKRVPGFVDLTLHDQVHLLECAWMEILMIGLVWRSMEHPGKLLFAPNLLLDRNQGKCVEGGVEIFDMLLATSSRFRMMNLQGEEFVCLKSIILLNSGVYTFLSSTLKSLEEKDHIHRVLDKITDTLIHLMAKAGLTLQQQHQRLAQLLLILSHIRHMSNKRMEHLYSMKCKNVVPLSDLLLEMLDAHRLGTGAEDPRPSRKRRSLGDVGEIVMTQSPATLSLSPGERATLSCRASQDISKYLNWYQQKPGQAPRLLIYHTSRLHSGIPARFSGSGSGTDYTLTISSLQPEDFAVYFCQQGNTLPYTFGQGTKLEIKGGGGSGGGGSGGGGSQVQLQESGPGLVKPSETLSLTCTVSGVSLPDYGVSWIRQPPGKGLEWIGVIWGSETTYYSSSLKSRVTISKDNSKNQVSLKLSSVTAADTAVYYCAKHYYYGGSYAMDYWGQGTLVTVSSTTTPAPRPPTPAPTIASQPLSLRPEACRPAAGGAVHTRGLDFACDIYIWAPLAGTCGVLLLSLVITLYCKRGRKKLLYIFKQPFMRPVQTTQEEDGCSCRFPEEEEGGCELRVKFSRSADAPAYKQGQNQLYNELNLGRREEYDVLDKRRGRDPEMGGKPRRKNPQEGLYNELQKDKMAEAYSEIGMKGERRRGKGHDGLYQGLSTATKDTYDALHMQALPPR
- IFN gamma levels, 1 μM Bazedoxifene ([1]; 1 μM Bazedoxifene): 7079.60 pg/mL
- IFN gamma levels, Vehicle ([1]; vehicle): 91.09 pg/mL
- ligand dependent regulation of CAR expression (in words) ([2]; 1 μM Bazedoxifene or Raloxifene versus DMSO, day 7 or day 9): did not show any ligand dependent regulation of CAR expression
- % CAR positive cells, Bazedoxifene ([2]; Table 21, thawed cells, overnight with CD3/28 beads, 1 μM Bazedoxifene, 1 μg/mL CD19-Fc): 39.6%
- % CAR positive cells, Vehicle ([2]; Table 21, thawed cells, overnight with CD3/28 beads, without Bazedoxifene, 1 μg/mL CD19-Fc): 0.39%
- CAR expression, % positive ([2]; overnight in the absence of Bazedoxifene): 0.6%
- CAR expression, % positive ([2]; overnight in the presence of 1 μM Bazedoxifene): 34%
- Nalm 6 area, total target area ([3]; 0 hr, Effector:Target 0.3:1, + 1 μM Bazedoxifene): 57617.98
- Nalm 6 area, total target area ([3]; 0 hr, Effector:Target 0.3:1, no ligand): 71711.59
- Nalm 6 area, total target area ([3]; 0 hr, Effector:Target 1:1, + 1 μM Bazedoxifene): 67768.82
- Nalm 6 area, total target area ([3]; 0 hr, Effector:Target 1:1, no ligand): 62673.31
- Nalm 6 area, total target area ([3]; 0 hr, Effector:Target 3:1, + 1 μM Bazedoxifene): 54788.54
- Nalm 6 area, total target area ([3]; 0 hr, Effector:Target 3:1, no ligand): 60708.63
- Nalm 6 area, total target area ([3]; 0 hr, Effector:Target 10:1, + 1 μM Bazedoxifene): 55572.92
- Nalm 6 area, total target area ([3]; 0 hr, Effector:Target 10:1, no ligand): 57172.20
- Nalm 6 area, total target area ([3]; 24 hr, Effector:Target 0.3:1, + 1 μM Bazedoxifene): 94217.60
- Nalm 6 area, total target area ([3]; 24 hr, Effector:Target 0.3:1, no ligand): 123175.80
- Nalm 6 area, total target area ([3]; 24 hr, Effector:Target 1:1, + 1 μM Bazedoxifene): 103535.70
- Nalm 6 area, total target area ([3]; 24 hr, Effector:Target 1:1, no ligand): 104433.20
- Nalm 6 area, total target area ([3]; 24 hr, Effector:Target 3:1, + 1 μM Bazedoxifene): 67794.87
- Nalm 6 area, total target area ([3]; 24 hr, Effector:Target 3:1, no ligand): 105474.34
- Nalm 6 area, total target area ([3]; 24 hr, Effector:Target 10:1, + 1 μM Bazedoxifene): 40606.37
- Nalm 6 area, total target area ([3]; 24 hr, Effector:Target 10:1, no ligand): 93991.37
- Nalm 6 area, total target area ([3]; 42 hr, Effector:Target 0.3:1, + 1 μM Bazedoxifene): 143903.95
- Nalm 6 area, total target area ([3]; 42 hr, Effector:Target 0.3:1, no ligand): 197082.75
- Nalm 6 area, total target area ([3]; 42 hr, Effector:Target 1:1, + 1 μM Bazedoxifene): 133539.50
- Nalm 6 area, total target area ([3]; 42 hr, Effector:Target 1:1, no ligand): 171919.20
- Nalm 6 area, total target area ([3]; 42 hr, Effector:Target 3:1, + 1 μM Bazedoxifene): 58548.97
- Nalm 6 area, total target area ([3]; 42 hr, Effector:Target 3:1, no ligand): 180465.55
- Nalm 6 area, total target area ([3]; 42 hr, Effector:Target 10:1, + 1 μM Bazedoxifene): 25302.71
- Nalm 6 area, total target area ([3]; 42 hr, Effector:Target 10:1, no ligand): 156073.75
- CD19-CAR mediated target cell killing ([3]; T cells:Nalm6 10:1 and 2.5:1, 3 days, with or without 1 μM Bazedoxifene): observed specifically in the presence of 1 μM Bazedoxifene
